Results published in patent US11473073B2, “Aminopeptidases for protein hydrolyzates” (DUPONT NUTRITION BIOSCIENCES APS, priority 2015, dated 2022).

Assays:
Type in all cases: biochemical
[1] = target: T1, Aspergillus clavatus NRRL 1 PepN 2 (aminopeptidase type 2) TRI035, SEQ ID NO: 5 (mature SEQ ID NO: 22) (Aspergillus clavatus, UniProt A1CCU6); experiment: Activity on Glu-pNA and Gln-pNA substrates; conditions: 20 mM CPB-Buffer pH 9.0, 45° C., 405 nm
T1 construct: MEROPS M28.008
Procedure: (§1) H-Glu-Nitroanilid (pNA) and H-Gln-Nitroanilid (pNA) were used as substrates and the release of p-Nitroanilid (pNA) was measured by absorbance at 405 nm. As buffer 20 mM CPB-Buffer (20 mM Citric acid, 20 mM Na-phosphate, 20 mM Boric acid) pH 9.0 was used. 10 mg H-Glu-pNA and H-Gln-pNA (from BACHEM or Schafer N; Copenhagen, Denmark) were dissolved in 1 ml of DMSO (Dimethyl Sulphoxide from SIGMA; cat # D2650).
(§2) For running the assay 80 μL buffer, 10 μL H-Glu-pNA or H-Gln-pNA substrate and 10 uL appropriately diluted PepN 2 was incubated in Costar assay plate 9017 (Corning Inc.) at 45° C. and measured at 405 nm every 30 sec for 30 min in a VERSAMAX® microplate reader (Molecular Devices) running with SoftMaxPro 5.4.1 software. Activity was determined as the maximal slope of the linear part of the curve determined over 10 time points.

[2] = target: T2, Neosartorya fischeri NRRL 181 PepN 2 (aminopeptidase type 2) TRI031, SEQ ID NO: 1 (mature SEQ ID NO: 18) (Aspergillus fischeri, UniProt A1DJ89); experiment: Activity on Glu-pNA and Gln-pNA substrates; conditions: 20 mM CPB-Buffer pH 9.0, 45° C., 405 nm
T2 construct: MEROPS M28.008
Procedure: as §1, §2

[3] = target: T3, PepN 1 L. helveticus (Lactobacillus helveticus ATCC 12046), purified (Lactobacillus helveticus, UniProt Q10730); experiment: Activity on Glu-pNA and Gln-pNA substrates; conditions: 20 mM CPB-Buffer pH 9.0, 45° C., 405 nm
T3 construct: made in house
T3 sequence (Q10730 1-844): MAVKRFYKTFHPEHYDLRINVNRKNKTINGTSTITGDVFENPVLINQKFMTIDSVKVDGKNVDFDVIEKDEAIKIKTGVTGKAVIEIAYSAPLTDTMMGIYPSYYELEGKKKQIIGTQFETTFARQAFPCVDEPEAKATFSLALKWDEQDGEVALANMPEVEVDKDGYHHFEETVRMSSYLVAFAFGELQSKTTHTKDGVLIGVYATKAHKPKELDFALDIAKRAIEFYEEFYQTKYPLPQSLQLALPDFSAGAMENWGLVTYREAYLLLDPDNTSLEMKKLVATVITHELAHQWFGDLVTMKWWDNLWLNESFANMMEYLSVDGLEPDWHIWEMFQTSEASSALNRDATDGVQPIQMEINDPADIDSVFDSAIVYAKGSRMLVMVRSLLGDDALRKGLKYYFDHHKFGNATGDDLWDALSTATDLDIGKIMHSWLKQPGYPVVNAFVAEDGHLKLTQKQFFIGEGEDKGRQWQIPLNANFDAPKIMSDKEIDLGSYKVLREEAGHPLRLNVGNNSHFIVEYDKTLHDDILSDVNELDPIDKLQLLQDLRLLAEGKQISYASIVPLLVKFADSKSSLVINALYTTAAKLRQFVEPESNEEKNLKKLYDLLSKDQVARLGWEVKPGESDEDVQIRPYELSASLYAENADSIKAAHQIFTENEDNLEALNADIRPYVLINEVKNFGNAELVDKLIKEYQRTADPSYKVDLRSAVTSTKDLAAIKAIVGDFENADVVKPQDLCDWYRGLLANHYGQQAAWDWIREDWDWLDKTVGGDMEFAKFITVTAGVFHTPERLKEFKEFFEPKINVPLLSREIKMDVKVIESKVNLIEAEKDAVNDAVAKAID

[4] = tested on: PepN 1 A. sojae (COROLASE LAP), non-purified; experiment: Activity on Glu-pNA and Gln-pNA substrates; conditions: 20 mM CPB-Buffer pH 9.0, 45° C., 405 nm
[5] = tested on: whey protein isolate (WPI); experiment: Degree of hydrolysis of WPI with endopeptidases plus PepN; conditions: 50° C., 18 hr
Procedure: Enzyme activities of PepN 1 Lactobacillus helveticus ATCC® 12046, PepN 1 Aspergillus oryzae and from PepN 2 from Aspergillus clavatus (TRI035) were determined according to Stressler, Eisele et al. (2013, infra). PepN 1 from L. helveticus was expressed and purified as described by Stressler, Eisele et al. (2013, infra).
The PepN 1 and 2 aminopeptidases were standardized to the activity range of 2.5-200 nkat*mL^−1. For protein hydrolyses, 1% (w/wWPI) FOODPRO® Alkaline Protease (DuPont, Brabrand, Denmark) and 1% (w/wWPI) FOODPRO® PNL (DuPont, Brabrand, Denmark) were added to the whey protein isolate suspension (WPI; LACPRODAN® 9224, Arla Ingredients, Viby, Denmark) with an initial pH of 7.0. Following the endopeptidases addition, the WPI was mixed and 200 μL were transferred to each well of a 96-well microtiter plate. The hydrolysis was conducted at 50° C. without pH control and terminated after 18 hr by addition of 20 μL of 2 M TCA. Prior to the determination of the DH (Nielsen, Petersen et al., 2001, infra), all samples were filtered 0.22 μm.

[6] = tested on: peptide TPAAAR (peptide library XPAAAR); experiment: Hydrolysis of peptide with proline in position 2, LC-MS; conditions: within 12 hr; peptide library 1 mg/mL, aminopeptidase 1 ug/mL, 55° C.; FIG. 10
Procedure: The peptide library XPAAAR (1 mg/mL) (SEQ ID NO:133) was incubated with 1 ug/mL of the aminopeptidase in 3×20 mM CPB-Buffer (20 mM Citric acid, 20 mM Phosphate, 20 mM Boric acid) at 55° C. 50 μL aliquots were stopped with 50 ul 5% TFA at the indicated time points and subjected to LC-MS analysis.
Capillary LC-MS/MS analyses were performed using an Agilent 1100 LC system (Agilent Technologies) interfaced to a LTQ Orbitrap Classic hybrid mass spectrometer (Thermo Scientific, Bremen, Germany). Samples were loaded onto a 15 cm Phenomenex Jupiter 4μ Proteo 90A, C4 analytical column. Separation was performed at a flow rate of 16 μL/min using a 10 min gradient of 0-40% Solvent B H2O/CH3CN/HCOOH (50/950/0.65 v/v/v) into the IONMAX® ion source (Thermo Scientific, San Jose). […] The peptide masses were measured by the Orbitrap (MS scans were obtained with a resolution of 60 000 at m/z 400), and up to 2 of the most intense peptide m/z were selected and subjected to fragmentation using CID in the linear ion trap (LTQ). […]
Label free quantification: The RAW files were accessed with the program Skyline 2.6.0.7176 (MacLean, B., et al., supra) which uses the MS1 intensities to build chromatograms (Schilling, B., et al., supra). […] Peptide sequences of the substrate as well as cleavage products were typed into Skyline and intensities were calculated in each sample. […]

T2 sequence (A1DJ89 entry or part of it): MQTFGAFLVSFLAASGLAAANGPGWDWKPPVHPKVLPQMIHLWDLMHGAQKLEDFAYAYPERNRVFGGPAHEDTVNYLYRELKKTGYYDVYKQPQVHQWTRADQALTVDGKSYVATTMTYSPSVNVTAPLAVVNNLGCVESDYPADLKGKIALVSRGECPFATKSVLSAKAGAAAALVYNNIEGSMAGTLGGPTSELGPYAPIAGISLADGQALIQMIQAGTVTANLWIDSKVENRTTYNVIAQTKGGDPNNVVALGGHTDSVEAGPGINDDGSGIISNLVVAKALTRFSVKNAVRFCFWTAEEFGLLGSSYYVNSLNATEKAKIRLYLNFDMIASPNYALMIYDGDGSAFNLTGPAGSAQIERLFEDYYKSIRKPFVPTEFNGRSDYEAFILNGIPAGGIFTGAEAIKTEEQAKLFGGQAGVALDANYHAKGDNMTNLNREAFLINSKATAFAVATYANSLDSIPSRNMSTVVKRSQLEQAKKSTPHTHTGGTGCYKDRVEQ
T1 sequence (A1CCU6 entry or part of it): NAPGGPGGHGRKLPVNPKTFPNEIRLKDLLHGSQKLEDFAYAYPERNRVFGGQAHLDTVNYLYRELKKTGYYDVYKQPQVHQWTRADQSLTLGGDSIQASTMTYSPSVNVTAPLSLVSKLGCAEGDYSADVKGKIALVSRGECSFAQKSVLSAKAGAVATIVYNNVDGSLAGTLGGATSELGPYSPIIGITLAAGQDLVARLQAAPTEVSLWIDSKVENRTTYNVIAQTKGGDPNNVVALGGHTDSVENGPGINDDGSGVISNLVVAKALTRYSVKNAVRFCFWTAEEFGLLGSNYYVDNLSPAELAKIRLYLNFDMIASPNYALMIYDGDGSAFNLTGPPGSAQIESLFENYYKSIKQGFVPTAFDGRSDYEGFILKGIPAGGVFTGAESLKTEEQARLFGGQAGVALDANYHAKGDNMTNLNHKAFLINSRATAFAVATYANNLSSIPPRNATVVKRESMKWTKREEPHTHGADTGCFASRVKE

Molecule: NC(=O)CC[C@H](N)C(=O)Nc1ccc([N+](=O)[O-])cc1 [Gln-pNA, H-Gln-Nitroanilid]
- Vmax (Gln-pNA) [1]: 98.7 mU/min
- Vmax (Gln-pNA) [2]: 75.9 mU/min
- Vmax (Gln-pNA) [3]: 0 mU/min
- Vmax (Gln-pNA) [4]: 0 mU/min

Molecule: N[C@@H](CCC(=O)O)C(=O)Nc1ccc([N+](=O)[O-])cc1 [Glu-pNA, H-Glu-Nitroanilid]
- Vmax (Glu-pNA) [1]: 20.1 mU/min
- Vmax (Glu-pNA) [2]: 50.8 mU/min
- Vmax (Glu-pNA) [3]: 0.02 mU/min
- Vmax (Glu-pNA) [4]: 0 mU/min

B1: PepN 1: L. helveticus: PepN 1 from Lactobacillus helveticus ATCC 12046, expressed and purified as described by Stressler, Eisele et al. (2013) (protein, UniProt Q10730 1-844, looked up)
Aminopeptidase N: T3 sequence (Q10730 1-844)
- Degree of hydrolysis ([5]; PepN dosage 2.5 nkat/mL in stock solution): 18%
- Degree of hydrolysis ([5]; PepN dosage 5 nkat/mL in stock solution): 18%
- Degree of hydrolysis ([5]; PepN dosage 10 nkat/mL in stock solution): 20%
- Degree of hydrolysis ([5]; PepN dosage 25 nkat/mL in stock solution): 23%
- Degree of hydrolysis ([5]; PepN dosage 50 nkat/mL in stock solution): 23%
- Degree of hydrolysis ([5]; PepN dosage 75 nkat/mL in stock solution): 24%
- Degree of hydrolysis ([5]; PepN dosage 100 nkat/mL in stock solution): 28%
- Degree of hydrolysis ([5]; PepN dosage 200 nkat/mL in stock solution): 27%

B2: TRI063 (A. oryzae): leucine aminopeptidase 2 from Aspergillus oryzae RIB40 (NCBI Reference Sequence: XP_001819545.1) (protein, listed as Aspergillus oryzae)
chain: MRSLLWASLLSGVLAGRALVSPDEFPEDIQLEDLLEGSQQLEDFAYAYPERNRVFGGKAHDDTVNYLYEELKKTGYYDVYKQPQVHLWSNADQTLKVGDEEIEAKTMTYSPSVEVTADVAVVKNLGCSEADYPSDVEGKVALIKRGECPFGDKSVLAAKAKAAASIVYNNVAGSMAGTLGAAQSDKGPYSAIVGISLEDGQKLIKLAEAGSVSVDLWVDSKQENRTTYNVVAQTKGGDPNNVVALGGHTDSVEAGPGINDDGSGIISNLVIAKALTQYSVKNAVRFLFWTAEEFGLLGSNYYVSHLNATELNKIRLYLNFDMIASPNYALMIYDGDGSAFNQSGPAGSAQIEKLFEDYYDSIDLPHIPTQFDGRSDYEAFILNGIPSGGLFTGAEGIMSEENASRWGGQAGVAYDANYHAAGDNMTNLNHEAFLINSKATAFAVATYANDLSSIPKRNTTSSLHRRARTMRPFGKRAPKTHAHVSGSGCWHSQVEA
- hydrolysis of TPAAAR [6]: no hydrolysis
